In article PMC11785957 (2025):
Values belong to the binder of their own block, whether it stands above or below them. Where no end group is shown, it is not given here.

Biological target: human TLR3 ectodomain (Wuxi Biologics, C-terminal His and Avi tags) (human, UniProt O15455 24-704, biotinylated (for yeast display))
Assay: BLI

Kd: 440 nM
B1: minibinder 7 (designed binder)
chain: SAMERYVKVLLRTAELAREAGDPEDVRKALEKAELVARILHNEELKEEIREVEEEL
modifications: also: biotinylated (site not given here)

Kd: 1200 nM
B2: minibinder 8 (designed binder)
chain: SLEEEAERVVEELVKEFNLSETQEIALRRYAEFAAKAGASEEVIEELLRRVAERLS
modifications: also: biotinylated (site not given here)
